Our source for the Km values is patent publication US9605283B2, “Microorganism modified for the production of 1,3-propanediol” (INSTITUT NATIONAL DES SCIENCES APPLIQUÉES, priority 2012, dated 2017).

Positions count from the first letter of the chain named. Numbers in names are those of the source.

Substrate in series [1]: CC(=O)C(=O)O
Nature of the series: OHB decarboxylase / pyruvate decarboxylase kinetics, Zm-Pdc wild type. It is filed as biochemical, Zymomonas mobilis. The conditions noted are these: other: 37° C., pH 7, coupled to yeast alcohol dehydrogenase/NADH. The source says:
(§1) Genomic DNAs of S. cerevisiae BY4741, and Z. mobilis (Lindner) Kluyver and van Niel (ATCC® 31821) were used as the template. […] Ligation products were transformed into competent E. coli DH5α cells (NEB). […] The corresponding protein sequences are represented by SEQ No. 208 and SEQ ID No. 208 128 respectively.
(§2) The plasmids were used to transform E. coli BL21 (DE3) star cells and the enzymes carrying an N-terminal hexa-His tag were expressed and purified as described in Example 1. Decarboxylase activity on 2-oxo-4-hydroxybutyrate (OHB), pyruvate (Sigma), and 4-methyl-2-oxovaleric acid (Sigma) was quantified.
(§3) OHB decarboxylase activity was assayed by coupling the decarboxylase activity to the NADPH-dependent reduction of the released 3-hydroxypropanal by purified aldehyde reductase, YqhD, from E. coli. The decarboxylation of pyruvate was coupled to the NADH-dependent reduction of acetaldehyde catalysed by yeast alcohol dehydrogenase. Branched-chain alpha-ketoacid decarboxylase activity was measured on 4-methyl-2-oxovaleric acid by coupling to the NADH-dependent reduction of 3-methylbutanal catalysed by horse liver alcohol dehydrogenase. […] Reactions were started by adding 20 mM 2-oxo-4-hydroxybutyrate (OHB), 10 mM 4-methyl-2-oxovaleric acid (MOV), or 5 mM pyruvate.

Substrate in series [2]: O=C(O)C(=O)CCO
The description is as above. It counts as biochemical, Zymomonas mobilis. The conditions noted are these: other: 37° C., pH 7, coupled to E. coli YqhD/NADPH.
From the text: as §1, §2, §3

Substrate in series [3]: O=C(O)C[C@H](O)C(=O)O
The series is described as follows: purified protein, by the assay type. It is filed as biochemical, Bacillus subtilis strain 168. The settings on record: other: 37° C., pH 8, NAD. The text has this:
(§4) Ligation products were transformed into E. coli DH5α cells.

Substrate in series [4]: O=C(O)C[C@H](O)C(=O)O
Nature of the series: cells, lysate or membranes named. The settings on record: other: 37° C., pH 8, NAD. It is filed as biochemical, Bacillus subtilis. The protocol:
(§5) Site-directed mutagenesis of the E. coli mdh and the B. subtilis mdh genes were carried out using the oligonucleotide pairs listed in Table 3 and the pET28-Ec-mdh and the pET28-Bs-mdh plasmids as the templates. Point mutations to change the amino acid sequence were introduced by PCR (Phusion 1U, HF buffer 20% (v/v), dNTPs 0.2 mM, direct and reverse primers 0.04 μM each, template plasmid 50 ng, water) using the oligonucleotide pairs listed in Table 3. Mutated genes contained a new restriction site listed in Table 3 (introduced using silent mutations) in addition to the functional mutation to facilitate identification of mutated clones. The PCR products were digested by DpnI at 37° C. for 1 h to remove template DNA, and transformed into competent E. coli DH5-alpha cells (NEB). The mutated plasmids were identified by restriction site analysis and verified to carry the desired mutations by DNA sequencing.
(§6) Mutant enzymes were expressed, purified and tested for DHB dehydrogenase activity as described in Example 1.

Substrate in series [5]: O=C(O)[C@@H](O)CCO
Nature of the series: cells, lysate or membranes named. It counts as biochemical, Bacillus subtilis. The settings on record: other: 37° C., pH 8, 10 mM NAD. The protocol: as §5, §6

Substrate in series [6]: C[C@H](O)C(=O)O
The series is described as follows: purified protein, by the assay type. It is filed as biochemical, Escherichia coli MG1655. The conditions noted are these: other: 37° C., pH 7, DCIP reduction. The protocol:
as §4
(§7) Activity of the membrane-associated DHB dehydrogenase (Ec-LldD) was assayed by following the DHB-dependent reduction of 2,6-dichloroindophenol (DCIP). (L)-2,4-dihydroxybutyrate+DCIPox→2-oxo-4-hydroxybutyrate+DCIPred Reaction scheme 2:
(§8) Reactions were started by adding 20 mM (L)-2,4-dihydroxybutyrate (Rhodia).

Substrate in series [7]: O=C(O)[C@@H](O)CCO
The series is described as follows: purified protein, by the assay type. It counts as biochemical, Escherichia coli MG1655. The conditions noted are these: other: 37° C., pH 7, 0.06 mM DCIP. As for the experimental part:
as §4, §7, §8

Substrate in series [8]: C[C@H](O)C(=O)O
Nature of the series: purified protein, by the assay type. It counts as biochemical, Escherichia coli. The settings on record: other: 37° C., pH 7, DCIP reduction. The protocol: as §7, §8
(§9) Site-directed mutagenesis of the E. coli lldD gene was carried out using the oligonucleotide pairs listed in Table 5 and the pET28-Ec-lldD plasmid as the template.

Substrate in series [9]: O=C(O)[C@@H](O)CCO
Nature of the series: purified protein, by the assay type. It counts as biochemical, Escherichia coli. The settings on record: other: 37° C., pH 7, 0.06 mM DCIP. The protocol: as §7, §8, §9

Substrate in series [10]: O=C(O)C[C@H](O)C(=O)O
Nature of the series: purified protein, by the assay type. The settings on record: other: 37° C., pH 8, NAD.

Substrate in series [11]: O=C(O)C[C@H](O)C(=O)O
Nature of the series: cells, lysate or membranes named. The conditions noted are these: other: 37° C., pH 8, NAD.

Substrate in series [12]: O=C(O)[C@@H](O)CCO
Nature of the series: cells, lysate or membranes named. It counts as biochemical, Escherichia coli. The conditions noted are these: other: 37° C., pH 8, 10 mM NAD.

Substrate in series [13]: C[C@H](O)C(=O)O
The series is described as follows: purified protein, by the assay type. The conditions noted are these: other: 37° C., pH 8, NAD, optionally 5 mM fructose-1,6-bisphosphate.

B1: Zymomonas mobilis pyruvate decarboxylase Zm-Pdc, wild type, SEQ ID No. 128 (Zymomonas mobilis subsp. mobilis ZM4 = ATCC 31821) (protein)
chain: MSYTVGTYLAERLVQIGLKHHFAVAGDYNLVLLDNLLLNKNMEQVYCCNELNCGFSAEGYARAKGAAAAVVTYSVGALSAFDAIGGAYAENLPVILISGAPNNNDHAAGHVLHHALGKTDYHYQLEMAKNITAAAEAIYTPEEAPAKIDHVIKTALREKKPVYLEIACNIASMPCAAPGPASALFNDEASDEASLNAAVEETLKFIANRDKVAVLVGSKLRAAGAEEAAVKFADALGGAVATMAAAKSFFPEENPHYIGTSWGEVSYPGVEKTMKEADAVIALAPVFNDYSTTGWTDIPDPKKLVLAEPRSVVVNGIRFPSVHLKDYLTRLAQKVSKKTGALDFFKSLNAGELKKAAPADPSAPLVNAEIARQVEALLTPNTTVIAETGDSWFNAQRMKLPNGARVEYEMQWGHIGWSVPAAFGYAVGAPERRNILMVGDGSFQLTAQEVAQMVRLKLPVIIFLINNYGYTIEVMIHDGPYNNIKNWDYAGLMEVFNGNGGYDSGAGKGLKAKTGGELAEAIKVALANTDGPTLIECFIGREDCTEELVKWGKRVAAANSRKPVNKLL
notes: hexa-His (N); made in house; host or cells: E. coli BL21 (DE3) star
Usually Km stands for the substrate concentration at which the rate is half of its maximum. As for B1, the figures for the Michaelis constant (Km) in series [1] and in [2] were 2.5 mM and 1.5 mM, respectively.

B2: Bacillus subtilis (L)-malate dehydrogenase Bs-Mdh, wild type, SEQ ID No. 126 (Bacillus subtilis subsp. subtilis str. 168) (protein)
chain: MGNTRKKVSVIGAGFTGATTAFLIAQKELADVVLVDIPQLENPTKGKALDMLEASPVQGFDAKITGTSNYEDTAGSDIVVITAGIARKPGMSRDDLVSTNEKIMRSVTQEIVKYSPDSIIVVLTNPVDAMTYAVYKESGFPKERVIGQSGVLDTARFRTFVAEELNLSVKDVTGFVLGGHGDDMVPLVRYSYAGGIPLETLIPKERIDAIVERTRKGGGEIVNLLGNGSAYYAPAASLTEMVEAILKDQRRVLPTIAYLEGEYGYEGIYLGVPTIVGGNGLEQIIELELTDYERAQLNKSVESVKNVMKVLS
notes: as for B1
As for B2, in series [3], the Km turned out to be 2.6 mM.

B3: Bacillus subtilis malate dehydrogenase Bs-Mdh variant R87C, SEQ ID No. 154 (Bacillus subtilis subsp. subtilis str. 168; R87C) (protein)
chain: B2 chain with R87C
As for B3, the Michaelis constant (Km) in series [4] is given as 6.8 mM; in series [5] it was 5.4 mM.

B4: Escherichia coli membrane associated (L)-lactate dehydrogenase Ec-LldD, wild type, SEQ ID No. 122 (Escherichia coli K-12) (protein)
chain: MIISAASDYRAAAQRILPPFLFHYMDGGAYSEYTLRRNVEDLSEVALRQRILKNMSDLSLETTLFNEKLSMPVALAPVGLCGMYARRGEVQAAKAADAHGIPFTLSTVSVCPIEEVAPAIKRPMWFQLYVLRDRGFMRNALERAKAAGCSTLVFTVDMPTPGARYRDAHSGMSGPNAAMRRYLQAVTHPQWAWDVGLNGRPHDLGNISAYLGKPTGLEDYIGWLGNNFDPSISWKDLEWIRDFWDGPMVIKGILDPEDARDAVRFGADGIVVSNHGGRQLDGVLSSARALPAIADAVKGDIAILADSGIRNGLDVVRMIALGADTVLLGRAFLYALATAGQAGVANLLNLIEKEMKVAMTLTGAKSISEITQDSLVQGLGKELPAALAPMAKGNAA
notes: as for B1
B4: the Km turned out to be 0.13 mM in series [6] and 1.31 mM in [7].

B5: Escherichia coli (L)-lactate dehydrogenase Ec-LldD variant V108C, SEQ ID No. 174 (Escherichia coli K-12; V108C) (protein)
chain: B4 chain with V108C
notes: DCIP assay
On to B5, for which the Km in series [8] is reported as 0.42 mM; in series [9], 0.85 mM.

B6: Escherichia coli (L)-malate dehydrogenase Ec-Mdh, wild type, SEQ ID No. 124 (Escherichia coli K-12) (protein)
chain: MKVAVLGAAGGIGQALALLLKTQLPSGSELSLYDIAPVTPGVAVDLSHIPTAVKIKGFSGEDATPALEGADVVLISAGVARKPGMDRSDLFNVNAGIVKNLVQQVAKTCPKACIGIITNPVNTTVAIAAEVLKKAGVYDKNKLFGVTTLDIIRSNTFVAELKGKQPGEVEVPVIGGHSGVTILPLLSQVPGVSFTEQEVADLTKRIQNAGTEVVEAKAGGGSATLSMGQAAARFGLSLVRALQGEQGVVECAYVEGDGQYARFFSQPLLLGKNGVEERKSIGTLSAFEQNALEGMLDTLKKDIALGEEFVNK
For the protein B6, the Km in series [10] is recorded as 0.56 mM.

B7: Escherichia coli malate dehydrogenase Ec-Mdh variant R81A, SEQ ID No. 156 (Escherichia coli K-12; R81A) (protein)
chain: B6 chain with R81A
Turning to B7, the values for the Km in series [11] and in [12] were 0.7 mM and 33 mM, respectively.

B8: Escherichia coli malate dehydrogenase Ec-Mdh variant R81A M85E, SEQ ID No. 160 (Escherichia coli K-12; M85E/R81A) (protein)
chain: B6 chain with R81A, M85E
Take B8: the Km in [11] is 8.6 mM; in [12], 48 mM.

B9: Escherichia coli malate dehydrogenase Ec-Mdh variant R81A M85E I12V, SEQ ID No. 166 (Escherichia coli K-12; I12V/M85E/R81A) (protein)
chain: B6 chain with I12V, R81A, M85E
Take B9: the Km in series [11] was determined as 11.2 mM; in [12], 20 mM.

B10: Escherichia coli malate dehydrogenase Ec-Mdh variant R81A M85Q, SEQ ID No. 158 (Escherichia coli K-12; M85Q/R81A) (protein)
chain: B6 chain with R81A, M85Q
As for B10, the results for the Km in series [11] and in series [12] were 2.2 mM and 29 mM, respectively.

B11: Escherichia coli malate dehydrogenase Ec-Mdh variant R81A I12V, SEQ ID No. 162 (Escherichia coli K-12; I12V/R81A) (protein)
chain: B6 chain with I12V, R81A
With B11, in [11], the Km is recorded as 8.5 mM.

B12: Escherichia coli malate dehydrogenase Ec-Mdh variant R81A D86S, SEQ ID No. 170 (Escherichia coli K-12; D86S/R81A) (protein)
chain: B6 chain with R81A, D86S
For the protein B12, the Michaelis-Menten constant (Km) was 10.3 mM in [11] and 28 mM in [12].

B13: Escherichia coli malate dehydrogenase Ec-Mdh variant R81A M85Q I12V, SEQ ID No. 164 (Escherichia coli K-12; I12V/M85Q/R81A) (protein)
chain: B6 chain with I12V, R81A, M85Q
Take B13: the Km in series [11] is 12.5 mM; in series [12] it was 19 mM.

B14: Lactococcus lactis (L)-lactate dehydrogenase Ll-LdhA, wild type, SEQ ID No. 120 (Lactococcus lactis subsp. lactis Il1403) (protein)
chain: MADKQRKKVILVGDGAVGSSYAFALVNQGIAQELGIVDLFKEKTQGDAEDLSHALAFTSPKKIYSADYSDASDADLVVLTSGAPQKPGETRLDLVEKNLRITKDVVTKIVASGFKGIFLVAANPVDILTYATWKFSGFPKNRVVGSGTSLDTARFRQALAEKVDVDARSIHAYIMGEHGDSEFAVWSHANVAGVKLEQWFQENDYLNEAEIVELFESVRDAAYSIIAKKGATFYGVAVALARITKAILDDEHAVLPVSVFQDGQYGVSDCYLGQPAVVGAEGVVNPIHIPLNDAEMQKMEASGAQLKAIIDEAFAKEEFASAVKN
As to B14, the Km in [13] is given as 21.2 mM.
